These are literature values, as cited in paper PMC12525728, “Safety, Pharmacokinetics, Translational and Molecular Mechanistic Insights on the Prostate Cancer Recurrence Suppressor Pseurotin A” (Molecules, 2025).

Where two headings read alike, the source gives them in different places.

On the set-up of this data set: method as in PMID 39441027. Particulars: cited from earlier work; for relative % reduction for LDL-C: propensity score matching analysis.

B1: evolocumab (antibody, chains of the INN, looked up, V domains shown)
VH: EVQLVQSGAEVKKPGASVKVSCKASGYTLTSYGISWVRQAPGQGLEWMGWVSFYNGNTNYAQKLQGRGTMTTDPSTSTAYMELRSLRSDDTAVYYCARGYGMDVWGQGTTVTVSS
VL: ESALTQPASVSGSPGQSITISCTGTSSDVGGYNSVSWYQQHPGKAPKLMIYEVSNRPSGVSNRFSGSKSGNTASLTISGLQAEDEADYYCNSYTSTSMVFGGGTKLTVL
notes: FDA-approved marketed humanized monoclonal antibody that interferes with the PCSK9-LDLR PPI
Take B1: the total cholesterol reduction (clinical trials, after 8 dosing weeks) is given as −26.5%. In addition, the “relative % reduction for LDL-C” value is, setting by setting: (females) −42.7%; (males) −54.4%.
